In patent publication KR20220167207A:

Legend:
[1] = target: CADM1 on small cell lung cancer cell lines H146 and H69 (human) (UniProt Q9BY67); assay: flow cytometry, PE anti-HA antibody alone (control) on H69 cells
[2] = target: CADM1 on small cell lung cancer cell lines H146 and H69 (human) (UniProt Q9BY67); assay: flow cytometry, PE anti-HA antibody alone (control) on H146 cells
[3] = target: T1, CADM1 peptide structure expressed on cells (CADM1 peptide, Myc tag, hinge, transmembrane domain, GFP) (human); assay: flow cytometry, PE anti-HA antibody alone (control) on cells with the CADM1 peptide structure
T1 sequence: DSRAGEEGSIRAVDH

[4] = target: CADM1 peptide expressed on SBC-5 small cell lung cancer cells (CADM1-SBC-5; peptide - transmembrane domain - GFP) (human); assay: flow cytometry, PE anti-HA antibody alone (control) on SBC-5 cells expressing the CADM1 peptide
[5] = target: comparison structure: the same structure without the CADM1 peptide (Myc tag, hinge, transmembrane domain, GFP) on cells; assay: flow cytometry, PE anti-HA antibody alone (control) on cells with the structure without the peptide

## PE-conjugated HA antibody (16B12 clone, Biolegend, Cat No. 901518)
[1]
  결합력 %: 2.2%
[2]
  결합력 %: 2.1%
[3]
  결합력 %: 0%
[4]
  결합력 %: 0.3%
[5]
  결합력 %: 0.1%
